{"source": "patent US20250258173A1", "about": "(FUJIREBIO, published 2025)", "key": {"[1]": {"target": "T1, recombinant N protein of SARS-CoV-2 (whole length, 419 amino acids) (SARS-CoV-2, UniProt P0DTC9 1-419)", "T1 construct": "also called SARS-CoV-2 N protein; SARS-CoV-2 nucleocapsid protein"}, "[2]": {"target": "T1, recombinant N protein of SARS-CoV-2 …", "remark": "listed apart in the source"}, "[3]": {"target": "T1, recombinant N protein of SARS-CoV-2 …", "remark": "listed apart in the source"}, "[4]": {"target": "T1, recombinant N protein of SARS-CoV-2 …", "remark": "listed apart in the source"}}, "note": "Like-named read-outs stand apart in the source and are kept apart here.", "data": [{"binder": "anti-N protein antibody C12 (antibody, V domains shown) VH: EVQLQESGGGLVRPGGSLKLSCAASGFTFSDYYMYWVRQTPEKRLEWVATISDGGRYSYYPDSVKGRFTVSRDNAKNNLYLQMSSLKSEDTAMYYCVRDRYDGWGSDFDVWGAGTTVTVS VL: DVQITQSPSSMYASLGERVTITCKASQDIKSYLSWYQQKPWKSPKTLIYYATSLADGVPSRFSGSGSGQDYSLTISSLESDDTATYYCLQHGESPWTFGGGTKLEIKR", "values": [{"measurement": "luminescence amount ratio (10 ng/mL/0 ng/mL)", "setting": "[1]", "value": 847}, {"measurement": "luminescence amount ratio (10 ng/mL/0 ng/mL)", "setting": "[2]", "value": 1.3}, {"measurement": "luminescence amount ratio (10 ng/mL/0 ng/mL)", "setting": "[3]", "value": 22.8}, {"measurement": "luminescence amount ratio (10 ng/mL/0 ng/mL)", "setting": "[4]", "value": 52.8}]}]}
